Like-named read-outs stand apart in the source and are kept apart here.
What was measured:
HLA-A*0201 = HLA-A*0201 (Homo sapiens, UniProt P04439, D140Y/D185E/D98H/E176V/E277Q/G131W/G231S/I119V/I121R/I166T/I218V/L300P/L318F/N151K/N90K/P208A/P217A/Q86G/Q94H/R138H/R169H/T345S)
Experimental: T2 cells (2·10^5 cells per well) are incubated with decreasing concentrations of peptides from 100 μM to 0.1 μM in a AIMV medium supplemented with 100 ng/μl of human P2m at 37° C. for 16 hours.
The analysis is achieved by FACS (Guava Easy Cyte).
The relative affinity is then determined as follows:
Each peptide is solubilized by taking into account the amino acid composition. […] Other peptides are resuspended in water or PBS pH7.4.
T2 cells (2·10^5 cells per well) were incubated with decreasing concentrations of peptides from 100 μM to 0.1 μM in a AIMV medium supplemented with 100 ng/μl of human P2m at 37° C. for 16 hours.
The analysis was achieved by FACS (Guava Easy Cyte).

[1] = test system: splenocytes of HLA-A2 (CB6F1-Tg(HLA-A*0201/H2-K^b)A*0201) mice; assay: ELISPOT-IFNγ assay on splenocytes of vaccinated HLA-A2 humanized mice (Example 9); type: in vivo, mouse; settings: 100 μg s.c. d0 and d14 with T13L helper and IFA; compared to the respective human reference epitopes
Text: Briefly, HLA-A2 humanized mice (HLA-A2 (CB6F1-Tg(HLA-A*0201/H2-K^b)A*0201) were assigned randomly (based on mouse sex and age) to experimental groups, wherein each group was immunized with a specific vaccination peptide (vacc-pAg) combined to a common helper peptide (h-pAg T13L; sequence: […]; SEQ ID NO: 280; Bhasin M, Singh H, Raghava G P (2003) MHCBN: a comprehensive database of MHC binding and non-binding peptides. Bioinformatics 19: 665-666) (as outlined in Table 15 below). The vacc-pAg were compared in couples (group 1 vs. group 2, group 1 vs. group 3; group 1 vs. group 4; group 5 vs. group 6; group 7 vs. group 8). Thereby, both native and optimized versions of a single peptide were compared in each wave.
The animals were immunized on day 0 (d0) with a prime injection, and on d14 with a boost injection. Each mouse was injected s.c. at tail base with 100 μL of an oil-based emulsion that contained: • 100 μg of vacc-pAg (25 μL of 4 mg/mL stock per mouse); • 150 μg of h-pAg (15 μL of 10 mg/mL stock per mouse); • 10 μL of PBS to reach a total volume of 50 μL (per mouse); • Incomplete Freund's Adjuvant (IFA) added at 1:1 (v:v) ratio (50 μL per mouse).
A separate emulsion was prepared for each vacc-pAg, as follows: IFA reagent was added to the vacc-pAg/h-pAg/PBS mixture in a 15 mL tube and mixed on vortex for repeated cycles of 1 min until forming a thick emulsion.
Seven days after the boost injection (i.e. on d21), the animals were euthanized and the spleen was harvested. Splenocytes were prepared by mechanical disruption of the organ followed by 70 μm-filtering and Ficoll density gradient purification.
The splenocytes were immediately used in an ELISPOT-IFNγ assay (Table 16). Experimental conditions were repeated in triplicates, using 2*105 total splenocytes per well, and were cultured in presence of vacc-pAg (10 μM), lonomycin (0.1 μM) plus PMA (1 μM) or medium-only to assess for their capacity to secrete IFNγ. The commercial ELISPOT-IFNγ kit (Diaclone Kit Mujrine IFNγ ELISpot) was used following the manufacturer's instructions, and the assay was performed after about 19 h of incubation.
Spots were counted on a CTL ELISpot reader. Data plotting and statistical analysis were performed with the Prism-5 software (GraphPad Software Inc.).
The data were then normalized as a number of specific spots (the average counts obtained in the ‘medium only’ condition being subtracted) per 50*103 total T cells.
The individual average values (obtained from the triplicates) were next used to plot the group average values. As the functional capacity of T cells might vary from individual to individual, the data were also expressed as the percentage of the ionomycin plus PMA response per individual (see FIG. 11).

[2] = T2 cell line, HLA-A*0201, Example 13, protocol as in Example 3
[3] = HLA-A*0201, HIV peptide printed as 1

RVSSYLVPI (listed as Homo sapiens) [FOXM1-H, reference compound]
Concentration of peptide that induces 20% of HLA-A2 expression (HLA-A*0201; Table 14, Example 8): 37.6 µM

FMPFGFILPI [IL13RA2-B6]
Concentration of peptide that induces 20% of HLA-A2 expression (HLA-A*0201; [2]): 5.9 µM

YLYTFLIST [IL13RA2-B2]
In vitro binding affinity (HLA-A*0201; [3]): 5.97 | Concentration of peptide that induces 20% of HLA-A2 expression (HLA-A*0201; [2]): 4.5 µM

YMPFGFILV [IL13RA2-B4]
Concentration of peptide that induces 20% of HLA-A2 expression (HLA-A*0201; [2]): 4.5 µM

YTLGEFLYI [BIRC5-B2]
Concentration of peptide that induces 20% of HLA-A2 expression (HLA-A*0201; Table 14, Example 8): 14.7 µM | T cell responses in the ELISPOT-IFNγ assay (in words) [1]: induced improved T cell responses

GLLGEFLQI [BIRC5-B3]
Concentration of peptide that induces 20% of HLA-A2 expression (HLA-A*0201; Table 14, Example 8): 22.9 µM | T cell responses in the ELISPOT-IFNγ assay (in words) [1]: induced improved T cell responses

ALPFGFILV [1A9V, reference compound]
Concentration of peptide that induces 20% of HLA-A2 expression (HLA-A*0201; [2]): 20.9 µM | Concentration of peptide that induces 20% of HLA-A2 expression (HLA-A*0201; Table 12, Example 7): 36.5 µM

YLPFGFILV [IL13RA2-B5]
Concentration of peptide that induces 20% of HLA-A2 expression (HLA-A*0201; [2]): 1.5 µM

LMLGEFLKL [2M, reference compound]
Concentration of peptide that induces 20% of HLA-A2 expression (HLA-A*0201; Table 17, Example 12): 2.87 µM

RLSSYLVEI [FOXM1-B]
Concentration of peptide that induces 20% of HLA-A2 expression (HLA-A*0201; Table 14, Example 8): 46.7 µM

FMPFGFILGV [IL13RA2-B3]
Concentration of peptide that induces 20% of HLA-A2 expression (HLA-A*0201; [2]): 3.3 µM

HIV: Reference peptide HIV pol 589-597, positive control (ISPIETVPV; UniProt P04585 589-597, looked up, fragment) [reference compound]
In vitro binding affinity (HLA-A*0201; [3]): 1 | Concentration of peptide that induces 20% of HLA-A2 expression (HLA-A*0201; Table 17, Example 12): 0.85 µM | In vitro binding affinity (HLA-A*0201; Table 17, Example 12, relative affinity vs HIV): 1.00 | Relative HLA-A2 labelling on T2 cells (HIV at 100 μM = 100) (HLA-A*0201; Table 18, peptide concentration 0.1 μM): 2.405 | Relative HLA-A2 labelling on T2 cells (HIV at 100 μM = 100) (HLA-A*0201; Table 18, peptide concentration 1 μM): 22.14 | Relative HLA-A2 labelling on T2 cells (HIV at 100 μM = 100) (HLA-A*0201; Table 18, peptide concentration 10 μM): 84.725 | Relative HLA-A2 labelling on T2 cells (HIV at 100 μM = 100) (HLA-A*0201; Table 18, peptide concentration 100 μM): 100

Reference: US20230105457A1, “Immunogenic Compounds For Treatment Of Adrenal Cancer” (ENTEROME S.A., priority 2019, published 2023)
